Measurements: patent US20190367612A1 (Daiichi Sankyo, published 2019)
Blank lines part the entries; values can stand above or below the binder they belong to.

Columns and labels:
[1] = biological target: T1, human CD3 (human, UniProt P07766 23-207); test: flow cytometry on human PBMC (dead and CD19-positive cells excluded), Penta-His Alexa Fluor 488 detection, rMFI = MFI minus sample without antibody
T1 construct: CD3 complex on human PBMC; also called human CD3 (PBMC); human CD3-expressing cells
T1 sequence (P07766 23-207 limits assumed): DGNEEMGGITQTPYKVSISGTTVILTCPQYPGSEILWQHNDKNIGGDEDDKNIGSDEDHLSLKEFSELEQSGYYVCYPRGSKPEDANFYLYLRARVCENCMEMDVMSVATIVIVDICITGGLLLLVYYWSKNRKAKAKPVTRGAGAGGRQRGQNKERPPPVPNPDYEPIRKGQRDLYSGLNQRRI
Method: Commercially available human PBMC (Cellular Technology Limited) was adjusted to an appropriate concentration with PBS containing 5% FBS. LIVE/DEAD Fixable Near-IR Dead Cell Stain Kit (Thermo Fisher Scientific Inc.) and an anti-CD19 antibody (Beckman Coulter Inc.) were added to the cells, which were then left standing at 4° C. for 30 minutes. The cells were washed twice with PBS containing 5% FBS, then adjusted to a concentration of 1×10⁶ cells/mL with PBS containing 5% FBS, inoculated in an amount of 100 μL/well to a 96-well U-bottomed microplate, and centrifuged to remove a supernatant. Each anti-GPRC5D-anti-CD3 bispecific molecule (C2037-C3E7034 to C3022-C3E7036 prepared in Example 12) diluted with PBS containing 5% FBS were added thereto in an amount of 100 μL/well, and the plate was left standing at 4° C. for 60 minutes. The cells were washed twice with PBS containing 5% FBS. Then, Penta-His Alexa Fluor 488 (Qiagen N.V.) diluted with PBS containing 5% FBS was added thereto in an amount of 30 μL/well, and the plate was left standing at 4° C. for 30 minutes. […] The data was analyzed using Flowjo (Tree Star, Inc.). The mean fluorescence intensity (MFI) of Alexa Fluor 488 in a fraction free from dead cells and CD19-positive cells was calculated. […]

[2] = biological target: T2, human GPRC5D (human, UniProt Q9NZD1 1-345); test: flow cytometry on A4/Fuk cells (endogenous human GPRC5D), Penta-His Alexa Fluor 488 detection, rMFI = MFI minus sample without antibody
T2 construct: whole, on cells; also called hGPRC5D; G-protein coupled receptor family C group 5 member D
Method: Lymphoma cell line A4/Fuk cells (JCRB Cell Bank) were adjusted to an appropriate concentration with PBS containing 5% FBS. LIVE/DEAD Fixable Near-IR Dead Cell Stain Kit was added to the cells, which were then left standing at 4° C. for 30 minutes. The cells were washed twice with PBS containing 5% FBS, then adjusted to a concentration of 1×10⁶ cells/mL with PBS containing 5% FBS, inoculated in an amount of 100 μL/well to a 96-well U-bottomed microplate, and centrifuged to remove a supernatant. Each anti-GPRC5D-anti-CD3 bispecific molecule (C2037-C3E7034 to C3022-C3E7036 prepared in Example 12) diluted with PBS containing 5% FBS were added thereto in an amount of 100 μL/well, and the plate was left standing at 4° C. for 60 minutes. The cells were washed twice with PBS containing 5% FBS. Then, Penta-His Alexa Fluor 488 diluted with PBS containing 5% FBS was added thereto in an amount of 30 μL/well, and the plate was left standing at 4° C. for 30 minutes. The cells were washed twice with PBS containing 5% FBS and then resuspended in PBS containing 5% FBS, followed by detection using a flow cytometer (FACSCanto™ II). The data was analyzed using Flowjo. The mean fluorescence intensity (MFI) of Alexa Fluor 488 in a fraction free from dead cells was calculated. The MFI value of the antibody-unsupplemented sample was subtracted from the MFI value of the antibody-supplemented sample to calculate a relative value of MFI (rMFI).

[3] = biological target: T3, amino-terminal peptide of cynomolgus monkey GPRC5D …(Biotin)-NH2 (cynomolgus monkey, C-terminal lysine carrying biotin, C-terminal amide); test: ELISA, chemiluminescence: biotinylated amino-terminal peptide of cynomolgus monkey GPRC5D on NeutrAvidin, scFv detected with HRP anti-FLAG antibody
T3 construct: also called amino-terminal peptide of biotinylated cynomolgus monkey GPRC5D
T3 peptide: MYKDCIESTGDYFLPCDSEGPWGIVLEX
Method: NeutrAvidin diluted to 1 μg/mL with PBS was added in an amount of 50 μL/well to 96-well Maxi-sorp plate (Black, Nunc/Thermo Fisher Scientific Inc.), and the plate was left standing overnight at 4° C. for immobilization. After washing three times with an ELISA buffer, the amino-terminal peptide of the biotinylated human or cynomolgus monkey GPRC5D (used in Example 10)-1) diluted to 1 μg/mL with PBS was added thereto, and the plate was shaken at room temperature for 1 hour. After washing three times with an ELISA buffer, the plate was blocked with Blocker Casein and washed three times with an ELISA buffer. Then, the C2037, C3048, C3015, or C3022 scFv was added to the plate and reacted at room temperature for 2 hours. After washing three times with an ELISA buffer, a horseradish peroxidase (HRP)-labeled anti-FLAG antibody diluted 5000-fold with an ELISA buffer was added thereto in an amount of 50 μL/well and reacted at room temperature for 1 hour. After washing five times with an ELISA buffer, SuperSignal Pico ELISA Chemiluminescent substrate was added. After 10 minutes, the chemiluminescence was measured using a plate reader.

[4] = biological target: T2, human GPRC5D; test: flow cytometry on KMS-34 cells (endogenous human GPRC5D), anti-FLAG antibody and Alexa 488 anti-mouse IgG detection
Method: The KMS-34 cells were recovered by centrifugation, washed twice with a FACS buffer (PBS containing 0.5% BSA and 2 mM EDTA, pH 7.4), and then suspended in the same solution as above. The C2037, C3048, C3015 or C3022 scFv was added to the obtained cell suspension, and the mixture was left standing at 4° C. for 2 hours. After washing twice with a FACS buffer, the cells were suspended by the addition of an anti-FLAG antibody (Sigma-Aldrich Corp.), and the mixture was further left standing at 4° C. for 1 hour. After washing twice with a FACS buffer, the cells were suspended by the addition of Alexa 488-labeled anti-mouse IgG antibody (Jackson ImmunoResearch Laboratories, Inc.), and the mixture was further left standing at 4° C. for 1 hour. After washing twice with a FACS buffer, the cells were fixed in 1% PFA (prepared from a 32% paraformaldehyde solution (Electron Microscopy Sciences)), followed by detection using a flow cytometer (FACSCanto™ II; Becton, Dickinson and Company). The data was analyzed using Flowjo (Tree Star, Inc.).

[5] = biological target: T4, human GPRC5D amino-terminal peptide MYKDCIESTGDYFLLCDAEGPWGIILE-K(Biotin)-NH2, having an intramolecular … (human, C-terminal lysine carrying biotin, C-terminal amide; intramolecularly formed disulfide bond); test: SPR (Biacore T200), kinetic analysis: biotinylated amino-terminal peptide of human GPRC5D on Sensor Chip CAP, scFv as analyte
T4 construct: Peptide Institute synthetic peptide; also called amino-terminal peptide of biotinylated human GPRC5D (disulfide bond present)
T4 peptide: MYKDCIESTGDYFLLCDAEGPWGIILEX
Method: The binding activity of the anti-GPRC5D antibodies against the amino-terminal peptide of human GPRC5D was tested by SPR using Biacore T200. The amino-terminal peptide of biotinylated human GPRC5D diluted to 2 nM with HBS-EP+ (manufactured by GE Healthcare Bio-Sciences Corp.) was immobilized on Sensor Chip CAP (manufactured by GE Healthcare Bio-Sciences Corp.) by contact at a rate of 10 μL/min for 180 seconds. Then, Kd was calculated by kinetic analysis using a plurality of concentrations of each scFv diluted with HBS-EP+ as analytes.

EC50 (read off the curve) [1]: ~0.4 nM
binding result [2]: binds
B1: anti-GPRC5D-anti-CD3 bispecific molecule C3048-C3E7034 (bispecific antibody)
scFv: GQVQLVQSGAEVKKPGSSVKVSCKASGGTFSRYAISWVRQAPGQGLEWMGGIIPIFGTANYAQKFQGRVTITADQSTRTAYMDLGRLRSEDTAVYYCALEGFRDSLKRNPFDIWGQGTMVTVSSGGGGSGGGGSGGGGSQSVVTQPPSVSAAPGQKVTISCSGGTTNIGSNYVSWYQQLPGTAPKFLMYENNKRPSGIPDRFSGSKSGTSATLAITGLQTGDEATYYCSTWDSSLNTGLFGGGTKLTVLGGGGSEVQLVESGGGLVQPGGSLRLSCAASGVTFNYYGMSWIRQAPGKGLEWVASITNSGGRIYYPDSVKGRFTISRENTQKTLYLQMNSLRAEDTAVYYCTLDGRDGWVAYWGQGTLVTVSSGGGGSGGGGSGGGGSNFMLTQPHSVSESPGKTVTISCKRNTGNIGSNYVNWYQQHEGSSPTTIIYRDDKRPDGVSDRFSGSIDRSSKSASLTISNLKTEDEADYFCQSYSSGFIFGGGTKLTVLGAAAGAGGDYKDDDDKGAAAHHHHHH
notes: Tandem scFv

binding result [3]: binds
binding result [4]: binds
Kd [5]: 95 nM
B2: human antibody C3022 scFv (scFv)
scFv: QVQLVQSGAEVKKPGASVKVSCKASGYTFTGYYMHWVRQAPGQGLEWMGRINPNSGGTNYAQKFQGRVTMTRDTSISTAYMELSGLRSDDTAVYYCASGSVRHPWGQGTLVTVSSGGGGSGGGGSGGGGSQPVLTQPPSASGTPGQRVTISCSGSRSNIGGNIVSWYQQFPGTAPRLLTYADNQRPSGVPDRFSGSKSGTSASLAISGLQSEDEADYYCAAWDDSLNGVVFGGGTKLTVL
notes: also called C3022 antibody scFv; not shown: FLAG and His tags at the carboxyl terminus
